Reference: patent publication US20230133381A1

target: human DR5 (human); assay: SPR (BIAcore X100), human DR5 on CM5 chip, IgG injected, 1:1 Langmuir model

Kd	koff	kon	Binder
80.1 pM	9.12e-05 s⁻¹	1.13e+06 M⁻¹ s⁻¹	DA35 (antibody, V domains shown) VH: AVTLDESGGGLQTPGGGLSLVCKGSGFTFSSFNMLWVRQAPGKGLEWVAGIGKSDRYTGYGSAVKGRATISRDDGQSTARLQMNSLRAEDTAVYYCVKDAGSGCGSGGWTGACIDTWGHGTEVIVSS VL: LTQPSSVSANLGGTVEITCSGGDSYAGSYYYGWYQQKAPGSAPVTVIYNNNNRPSNIPSRFSGSTSGSTATLTITGVQAEDEATYFCGSRDSSYVGIFGAGTTLTVL
94.2 pM	9.5e-05 s⁻¹	1e+06 M⁻¹ s⁻¹	DA34 (antibody, V domains shown) VH: AVTLDESGGGLQTPGGGLSLVCKGSGFTFSSFNMLWVRQAPGKGLEWVAGIGKSDRYTGYGSAVKGRATISRDDGQSTAYLQMNSLRAEDTAVYYCVKDAGSGCGSGGWTGACIDTWGHGTEVIVSS VL: LTQPSSVSANLGGTVEITCSGGDSYAGSYYYGWYQQKAPGSAPVTVIYNNNNRPSNIPSRFSGSTSGSTATLTITGVQAEDEATYYCGSRDSSYVGIFGAGTTLTVL
1.02 pM	1.23e-06 s⁻¹	1.2e+06 M⁻¹ s⁻¹	DA24 (antibody, V domains shown) VH: AVTLDESGGGLQTPGGGLSLVCKGSGFTFSSFNMLWVRQAPGKGLEWVAGIGKSDRYTGYGSAVKGRATISRDDGQSTVRLQLNNLRAEDTGTYYCVKDAGSGCGSGGWTGACIDTWGHGTEVIVSS VL: LTQPSSVSANLGGTVEITCSGGDSYAGSYYYGWYQQKAPGSAPVTVIYNNNNRPSNIPSRFSGSTSGSTATLTITGVQAEDEATYYCGSRDSSYVGIFGAGTTLTVL
11.2 pM	2.94e-05 s⁻¹	2.62e+06 M⁻¹ s⁻¹	DA13 (antibody, V domains shown) VH: EVQLVESGGGLVQPGGSLRLSCAASGFTFSSFNMLWVRQAPGKGLEWVAGIGKSDRYTGYGSAVKGRFTISRDTSKNTAYLQMNSLRAEDTAVYYCSRDAGSGCGSGGWTGACIDTWGQGTLVTVSS VL: DIQMTQSPSSLSASVGDRVTITCSGGDSYAGSYYYGWYQQKPGKAPKTLIYNNNNRPSGVPSRFSGSRSGTDFTLTISSLQPEDFATYYCGSRDSAGMGAFGQGTKVEIK
0.1 pM	1.2e-07 s⁻¹	1.2e+06 M⁻¹ s⁻¹	DA4 (antibody, V domains shown) VH: EVQLVESGGGLVQPGGSLRLSCAASGFTFSSFNMLWVRQAPGKGLEWVAGIGKSDRYTGYGSAVKGRFTISRDDSKNTVYLQMNSLRAEDTAVYYCVRDAGSGCGSGGWTGACIDTWGQGTLVTVSS VL: DIQMTQSPSSLSASVGDRVTITCSGGDSYAGSYYYGWYQQKPGKAPKTLIYNNNNRPSGVPSRFSGSTSGTDFTLTISSLQPEDFATYYCGSRDSSYVGIFGQGTKVEIK
12 pM	1.21e-05 s⁻¹	1e+06 M⁻¹ s⁻¹	DA20 (antibody, V domains shown) VH: EVQLVESGGGLVQPGGSLRLSCAASGFTFSSFNMLWVRQAPGKGLEWVAGIGKSDRYTGYGSAVKGRFTISRDDSKSTVYLQMNSLRAEDTAVYYCVRDAGSGCGSGGWTGACIDTWGQGTLVTVSS VL: DIQMTQSPSSLSASVGDRVTITCSGGDSYAGSYYYGWYQQKPGKAPKTLIYNNNNRPSGVPSRFSGSRSGTDFTLTISSLQPEDFATYYCGSRDSAGMGAFGQGTKVEIK

More lines, now with the values behind:

Binder	Kd	koff	kon
DA27 (antibody, V domains shown) VH: AVTLDESGGGLQTPGGGLSLVCKGSGFTFSSFNMLWVRQAPGKGLEWVAGIGKSDRYTGYGSAVKGRATISRDDGQSTVRLQLNNLRAEDTGTYYCVKDAGSGCGSGGWTGACIDTWGHGTEVIVSS VL: LTQPSSVSANLGGTVEITCSGGDSYAGSYYYGWYQQKAPGSAPVTVIYNNNNRPSNIPSRFSGSTSGSTATLTITGVQAEDEATYFCGSRDSSYVGIFGAGTTLTVL	1.92 pM	2.24e-06 s⁻¹	1.17e+06 M⁻¹ s⁻¹
DA32 (antibody, V domains shown) VH: AVTLDESGGGLQTPGGGLSLVCKGSGFTFSSFNMLWVRQAPGKGLEWVAGIGKSDRYTGYGSAVKGRATISRDDGQSTVRLQLNNLRAEDTAVYYCVKDAGSGCGSGGWTGACIDTWGHGTEVIVSS VL: LTQPSSVSANLGGTVEITCSGGDSYAGSYYYGWYQQKAPGSAPVTVIYNNNNRPSNIPSRFSGSTSGSTATLTITGVQAEDEAVYFCGSRDSSYVGIFGAGTTLTVL	75.1 pM	8.59e-05 s⁻¹	1.14e+06 M⁻¹ s⁻¹
DA25 (antibody, V domains shown) VH: AVTLDESGGGLQTPGGGLSLVCKGSGFTFSSFNMLWVRQAPGKGLEWVAGIGKSDRYTGYGSAVKGRATISRDDGQSTVYLQMNSLRAEDTGTYYCVKDAGSGCGSGGWTGACIDTWGHGTEVIVSS VL: LTQPSSVSANLGGTVEITCSGGDSYAGSYYYGWYQQKAPGSAPVTVIYNNNNRPSNIPSRFSGSTSGSTATLTITGVQAEDEAVYFCGSRDSSYVGIFGAGTTLTVL	1.62 pM	1.71e-06 s⁻¹	1.05e+06 M⁻¹ s⁻¹
DA3 (antibody, V domains shown) VH: EVQLVESGGGLVQPGGSLRLSCAASGFTFSSFNMLWVRQAPGKGLEWVAGIGKSDRYTGYGSAVKGRFTISRDTSKSTVYLQMNSLRAEDTAVYYCVRDAGSGCGSGGWTGACIDTWGQGTLVTVSS VL: DIQMTQSPSSLSASVGDRVTITCSGGDSYAGSYYYGWYQQKPGKAPKTLIYNNNNRPSGVPSRFSGSTSGTDFTLTISSLQPEDFATYYCGSRDSSYVGIFGQGTKVEIK		< 1e-05 s⁻¹	4.9e+06 M⁻¹ s⁻¹
DA2 (antibody, V domains shown) VH: EVQLVESGGGLVQPGGSLRLSCAASGFTFSSFNMLWVRQAPGKGLEWVAGIGKSDRYTGYGSAVKGRFTISRDDSKSTVYLQMNSLRAEDTAVYYCVRDAGSGCGSGGWTGACIDTWGQGTLVTVSS VL: DIQMTQSPSSLSASVGDRVTITCSGGDSYAGSYYYGWYQQKPGKAPKTLIYNNNNRPSGVPSRFSGSRSGTDFTLTISSLQPEDFATYYCGSRDSSYVGIFGQGTKVEIK	< 5.3 pM		1.9e+06 M⁻¹ s⁻¹
DA7 (antibody, V domains shown) VH: EVQLVESGGGLVQPGGSLRLSCAASGFTFSSFNMLWVRQAPGKGLEWVAGIGKSDRYTGYGSAVKGRFTISRDDSKSTVYLQMNSLRAEDTAVYYCSRDAGSGCGSGGWTGACIDTWGQGTLVTVSS VL: DIQMTQSPSSLSASVGDRVTITCSGGDSYAGSYYYGWYQQKPGKAPKTLIYNNNNRPSGVPSRFSGSTSGTDFTLTISSLQPEDFATYYCGSRDSSYVGIFGQGTKVEIK	1.9 pM	2.9e-06 s⁻¹	1.4e+06 M⁻¹ s⁻¹
DA21 (antibody, V domains shown) VH: EVQLVESGGGLVQPGGSLRLSCAASGFTFSSFNMLWVRQAPGKGLEWVAGIGKSDRYTGYGSAVKGRFTISRDDSKSTVYLQMNSLRAEDTAVYYCVRDAGSGCGSGGWTGACIDTWGQGTLVTVSS VL: DIQMTQSPSSLSASVGDRVTITCSGGDSYAGSYYYGWYQQKPGKAPKTLIYNNNNRPSGVPSRFSGSRSGTDFTLTISSLQPEDFATYYCGSRDSSGAGGFGQGTKVEIK	6.43 pM	7.17e-06 s⁻¹	1.11e+06 M⁻¹ s⁻¹
DA14 (antibody, V domains shown) VH: EVQLVESGGGLVQPGGSLRLSCAASGFTFSSFNMLWVRQAPGKGLEWVAGIGKSDRYTGYGSAVKGRFTISRDTSKNTAYLQMNSLRAEDTAVYYCSRDAGSGCGSGGWTGACIDTWGQGTLVTVSS VL: DIQMTQSPSSLSASVGDRVTITCSGGDSYAGSYYYGWYQQKPGKAPKTLIYNNNNKAKGVPSRFSGSRSGTDFTLTISSLQPEDFATYYCGSRDSSYVGIFGQGTKVEIK	23.5 pM	0.0001 s⁻¹	4.27e+06 M⁻¹ s⁻¹
DA16 (antibody, V domains shown) VH: EVQLVESGGGLVQPGGSLRLSCAASGFTFSSFNMLWVRQAPGKGLEWVAGIGKSDRYTGYGSAVKGRFTISRDTSKNTAYLQMNSLRAEDTAVYYCSRDAGSGCGSGGWTGACIDTWGQGTLVTVSS VL: DIQMTQSPSSLSASVGDRVTITCSGGDSYAGSYYYGWYQQKPGKAPKTLIYNNNNRPSGVPSRFSGSRSGTDFTLTISSLQPEDFATYYCGSRDSSGAGGFGQGTKVEIK	26.1 pM	5.53e-05 s⁻¹	2.11e+06 M⁻¹ s⁻¹
DA6 (antibody, V domains shown) VH: EVQLVESGGGLVQPGGSLRLSCAASGFTFSSFNMLWVRQAPGKGLEWVAGIGKSDRYTGYGSAVKGRFTISRDDSKSTVYLQMNSLRAEDTAVYYCARDAGSGCGSGGWTGACIDTWGQGTLVTVSS VL: DIQMTQSPSSLSASVGDRVTITCSGGDSYAGSYYYGWYQQKPGKAPKTLIYNNNNRPSGVPSRFSGSTSGTDFTLTISSLQPEDFATYYCGSRDSSYVGIFGQGTKVEIK	0.53 pM	4.2e-06 s⁻¹	7.8e+06 M⁻¹ s⁻¹
DA12 (antibody, V domains shown) VH: EVQLVESGGGLVQPGGSLRLSCAASGFTFSSFNMLWVRQAPGKGLEWVAGIGKSDRYTGYGSAVKGRFTISRDTSKNTAYLQMNSLRAEDTAVYYCSRDAGSGCGSGGWTGACIDTWGQGTLVTVSS VL: DIQMTQSPSSLSASVGDRVTITCSGGDSYAGSYYYGWYQQKPGKAPKTLIYNNNNLMPGVPSRFSGSRSGTDFTLTISSLQPEDFATYYCGSRDSSYVGIFGQGTKVEIK	12.7 pM	2.99e-05 s⁻¹	2.37e+06 M⁻¹ s⁻¹
DA10 (antibody, V domains shown) VH: EVQLVESGGGLVQPGGSLRLSCAASGFTFSSFNMLWVRQAPGKGLEWVAGIGKSDRYTGYGSAVKGRFTISRDTSKNTAYLQMNSLRAEDTAVYYCSRDAGSGCGSGGWTGACIDTWGQGTLVTVSS VL: DIQMTQSPSSLSASVGDRVTITCSGGDSYAGSYYYGWYQQKPGKAPKTLIYNNNNRPSGVPSRFSGSRSGTDFTLTISSLQPEDFATYYCGSRDSSYVGIFGQGTKVEIK	7 pM	1.6e-05 s⁻¹	2.3e+06 M⁻¹ s⁻¹
DA1 (antibody, V domains shown) VH: EVQLVESGGGLVQPGGSLRLSCAASGFTFSSFNMLWVRQAPGKGLEWVAGIGKSDRYTGYGSAVKGRFTISRDDSKSTVYLQMNSLRAEDTAVYYCVRDAGSGCGSGGWTGACIDTWGQGTLVTVSS VL: DIQMTQSPSSLSASVGDRVTITCSGGDSYAGSYYYGWYQQKPGKAPKTLIYNNNNRPSGVPSRFSGSTSGTDFTLTISSLQPEDFATYYCGSRDSSYVGIFGQGTKVEIK	< 2 pM	< 1e-05 s⁻¹	4.9e+06 M⁻¹ s⁻¹
